Assay results taken from paper PMC4423210, “Ubiquitination of the Dishevelled DIX domain blocks its head-to-tail polymerization” (Nature Communications, 2015).

B1: hDvl2 DIX domain bearing the polymerization-deficient mutation M4 (Y27D) (domain or fragment, human)
chain: GETKVIYHLDEEETPDLVKIPVPAERITLGDFKSVLQRPAGAKYFFKSMDQDFGVVKEEISDDNARLPCFNGRVVSWLVSSDNPQPEMAPPVHEPR
notes: DIX domain of human Dishevelled-2 (hDvl2) with Y27D; Crystallised at 50 mg/ml; forms a helical head-to-tail filament in the crystal; also called hDvl2 DIX-Y27D; source: E. coli BL21-CodonPlus(DE3)-RIL, purified (Ni-NTA, TEV, gel filtration, anion exchange); not shown: 6xHis, N-terminal, cleaved
B2: DIX domain of human Dvl2 (hDvl2), unmodified (domain or fragment, UniProt O14641 11-93, looked up)
chain: VGETKVIYHLDEEETPYLVKIPVPAERITLGDFKSVLQRPAGAKYFFKSMDQDFGVVKEEISDDNARLPCFNGRVVSWLVSSD
notes: DIX domain of human Dishevelled-2 (hDvl2); Codon-optimised synthetic gene in pCDF-PylT; PDB 4WIP holds the Y27D mutant of the hDvl2 DIX domain; also called unmodified DIX; hDvl2 DIX domain; not shown: His6, N-terminal, cleaved

What was measured:
[1] = molecular target: the molecule itself; assay: crystal structure; hDvl2 DIX-Y27D, 40% PEG400, 0.1 M Tris pH 8.5, 0.2 M LiSO4, 19 °C; helical filament in the crystal
[2] = molecular target: the molecule itself; assay: SEC-MALS; highest loading concentration (235 μM DIX, ∼160 μM DIX54-Ub or DIX58-Ub; reduced ∼10x during SEC); Superdex-75 HR10/300, 20 mM Tris pH 7.4, 200 mM NaCl, 0.01% NaN3; self-association, apparent molecularity
[3] = molecular target: the molecule itself; assay: SEC-MALS; loading concentration 10 μM (reduced ∼10x during SEC); Superdex-75 HR10/300, 20 mM Tris pH 7.4, 200 mM NaCl, 0.01% NaN3; self-association, apparent molecularity
[4] = molecular target: the molecule itself; assay: SEC-MALS; loading concentration 50 μM (reduced ∼10x during SEC); Superdex-75 HR10/300, 20 mM Tris pH 7.4, 200 mM NaCl, 0.01% NaN3; self-association, apparent molecularity

Protein	binding result [1]	stoichiometry N [2] [monomers]	stoichiometry N [3]	stoichiometry N [4]
B1	binds	–	–	–
B2	–	> 84	2	3
